# T1: I-AniI Y2 K227M nickase (in cell) (Aspergillus nidulans, UniProt P03880 P03880:235-488, F13Y,F80K,S111Y,L232K,K227M)
# T1 sequence: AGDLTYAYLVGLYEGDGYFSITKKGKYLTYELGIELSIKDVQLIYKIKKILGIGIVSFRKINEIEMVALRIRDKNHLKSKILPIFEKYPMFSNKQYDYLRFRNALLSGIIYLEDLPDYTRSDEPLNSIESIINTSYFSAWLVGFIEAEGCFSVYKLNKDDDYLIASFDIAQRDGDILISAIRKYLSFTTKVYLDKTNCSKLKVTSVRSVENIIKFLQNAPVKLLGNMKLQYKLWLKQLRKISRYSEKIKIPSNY
# T2: I-AniI Y2 (in cell) (Aspergillus nidulans, UniProt P03880 P03880:235-488, F13Y,F80K,S111Y,L232K)
# T2 sequence: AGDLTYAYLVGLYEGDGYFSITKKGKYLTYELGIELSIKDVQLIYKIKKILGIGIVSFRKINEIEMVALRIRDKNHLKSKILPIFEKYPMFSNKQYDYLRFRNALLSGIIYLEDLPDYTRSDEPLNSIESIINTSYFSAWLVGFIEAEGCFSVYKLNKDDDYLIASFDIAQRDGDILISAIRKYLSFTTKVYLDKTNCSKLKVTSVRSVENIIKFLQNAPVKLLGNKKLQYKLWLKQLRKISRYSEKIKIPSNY
# T3: I-AniI HyperK (in cell) (Aspergillus nidulans, UniProt P03880 P03880:235-488, F80K,L232K)
# T3 sequence: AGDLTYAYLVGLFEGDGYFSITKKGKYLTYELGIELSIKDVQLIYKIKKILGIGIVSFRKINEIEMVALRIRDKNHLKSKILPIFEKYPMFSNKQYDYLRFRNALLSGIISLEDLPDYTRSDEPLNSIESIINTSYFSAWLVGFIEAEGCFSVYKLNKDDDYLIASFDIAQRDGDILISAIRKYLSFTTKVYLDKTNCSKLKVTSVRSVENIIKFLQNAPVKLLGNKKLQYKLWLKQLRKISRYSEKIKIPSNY
# T4: I-AniI K227M nickase (Aspergillus nidulans, UniProt P03880 P03880:235-488, F80K,L233K,K227M)
# T4 sequence: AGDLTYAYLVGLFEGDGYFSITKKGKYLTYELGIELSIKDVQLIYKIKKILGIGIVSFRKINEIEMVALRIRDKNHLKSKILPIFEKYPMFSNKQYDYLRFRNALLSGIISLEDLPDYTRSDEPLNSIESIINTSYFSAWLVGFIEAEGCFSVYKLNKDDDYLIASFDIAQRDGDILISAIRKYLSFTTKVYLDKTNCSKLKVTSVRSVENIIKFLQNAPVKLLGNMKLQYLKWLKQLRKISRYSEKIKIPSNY
# T5: I-AniI K227M/Q171K (catalytically inactive) (Aspergillus nidulans, UniProt P03880 P03880:235-488, F80K,L233K,Q171K,K227M)
# T5 sequence: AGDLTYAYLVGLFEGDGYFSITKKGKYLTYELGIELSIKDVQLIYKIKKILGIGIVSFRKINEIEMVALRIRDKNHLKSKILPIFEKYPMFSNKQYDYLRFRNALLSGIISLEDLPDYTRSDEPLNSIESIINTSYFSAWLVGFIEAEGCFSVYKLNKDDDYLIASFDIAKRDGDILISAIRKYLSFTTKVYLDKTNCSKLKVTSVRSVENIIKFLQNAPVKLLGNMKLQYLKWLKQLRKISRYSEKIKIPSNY
# Legend:
# [1] = target: T1, I-AniI Y2 K227M nickase (in cell); assay: cell_activity; cis recombination, 293T; reporter alone 5.10; details: tags: N-terminal HA and NLS
# Description: (§1) Cells were analyzed on an FACScan® flow cytometer (Becton Dickinson); 75,000 events were gated for linear side and forward scatter to identify cells; and GFP fluorescence was analyzed.
# (§2) Reporter assays were developed to measure either intramolecular recombination in cis, or recombination of a chromosomal target mediated by a donor in trans. The assay for recombination in cis used a reporter, DR-GFPAni, based on the direct repeat recombination reporter plasmid (DR)-GFP (Pierce et al., Genes Dev. 13:2633-2638, 1999), which was designed to score only gene conversion, and not repair mediated by NHEJ or single-strand annealing. […] Transfection efficiency was consistently greater than 90%. […] The fraction of GFP⁺ cells ranged from a background of about 3 to about 5% for cells transfected with the reporter alone, up to about 50% in cells transfected simultaneously with the reporter plasmid and an I-AniI Y2 cleavase expression plasmid (FIG. 8C and FIG. 10). […] Expression of the I-AniI nickase stimulated recombination 2.5-fold (FIG. 8C), or approximately one-fourth as efficiently as the I-AniI cleavase.
# (§3) ¹The two different series were performed as described in this example.
# I-AniI Y2 (in cell) = target: T2, I-AniI Y2 (in cell); assay: as above; details: tags: N-terminal HA and NLS
# Description: as §1, §2, §3
# I-AniI HyperK (in cell) = target: T3, I-AniI HyperK (in cell); assay: as above; details: tags: N-terminal HA and NLS
# Description: as §1, §2, §3
# I-AniI K227M nickase = target: T4, I-AniI K227M nickase; assay: ITC; +1.4 kcal/mol in binding free energy vs wild type
# Description: (§4) Isothermal titration calorimetry (ITC) was used to determine the dissociation constants of native and nicking I-AniI binding to the optimal LIB4 DNA target site (FIG. 4E). Calorimetric experiments were conducted as described previously (Eastberg et al., Biochemistry 46:7215-25, 2007). […] This difference is primarily due to a +5.8 kcal/mol increase in enthalpy change upon nickase binding, implying that the nicking variant has lost contacts to the DNA target—presumably because a hydrogen bond formed by the K227 side chain to the DNA phosphate backbone (Scalley-Kim et al., J. Mol. Biol. 372:1305-1319, 2007) is eliminated.
# [2] = target: T5, I-AniI K227M/Q171K (catalytically …); assay: ITC; catalytically inactive
# Description: as §4
Binder,activity [1],activity (I-AniI Y2 (in cell)),activity (I-AniI HyperK (in cell)),Kd (I-AniI K227M nickase),Kd [2]
I-AniI native target site (19 bp) (dsDNA) DNA 1: TTACAGAGAAACCTCCTCA DNA 2: TGAGGAGGTTTCTCTGTAA,12.4 % GFP+,47.5 % GFP+,11 % GFP+,,
I-AniI Lib4 target site (dsDNA) DNA 1: TGAGGAGGTTACTCTGTTA DNA 2: TAACAGAGTAACCTCCTCA,,,,71 nM,62 nM

# Source: US20110294217, “DNA NICKING ENZYME FROM A HOMING ENDONUCLEASE THAT STIMULATES SITE-SPECIFIC GENE CONVERSION” (FRED HUTCHINSON CANCER RESEARCH CENTER, published 2011)
